Biological target: the molecule itself
Assay: crystal structure; apo form I, space group P2_(1)2_(1)2_(1), crystallization condition I, hanging drop at 18 °C; two molecules in the asymmetric unit; 1.80 Å

B1: 2-C-methyl-D-erythritol-4-phosphate cytidyltransferase (IspD) from Bacillus subtilis (enzyme, Bacillus subtilis 168)
chain: MSYDVVIPAAGQGKRMKAGRNKLFIELKGDPVIIHTLRVFDSHRQCDKIILVINEQEREHFQQLLSDYPFQTSIELVAGGDERQHSVYKGLKAVKQEKIVLVHDGARPFIKHEQIDELIAEAEQTGAAILAVPVKDTIKRVQDLQVSETIERSSLWAVQTPQAFRLSLLMKAHAEAERKGFLGTDDASLVEQMEGGSVRVVEGSYTNIKLTTPDDLTSAEAIMESESGNKHV
notes: IspD of Bacillus subtilis 168 (DSM 23778); the IspD gene amplified from genomic DNA as a 699 bp product; 232 residues built in apo form I (residues numbered up to 232); 699 bp fits 232 codons and a stop codon, so probably the whole gene; Cloned BamHI/XhoI in pGEX-6P-1; GST removed by PreScission protease, so a few vector residues may be left at the N-terminus (surmised); also called BsIspD; …
  stoichiometry N: 2

Source: PMC5099578, “A structural and functional study on the 2-C-methyl-D-erythritol-4-phosphate cytidyltransferase (IspD) from Bacillus subtilis” (Scientific Reports, 2016)
